Test results from patent US20090305281, “NOVEL INHIBITORS OF RETROVIRAL REVERSE TRANSCRIPTACE” (THE CURATORS OF THE UNIVERSITY OF MISSOURI, published 2009).

Columns and labels:
[1] = target: T1, HIV-1 reverse transcriptase (HXB2, group M subtype B) (Human immunodeficiency virus 1, UniProt P04585 SEQ:1-560); test: inhibition; DDDP, K+ buffer; conditions: tags: expressed in E. coli
Procedure: (§1) Reactions were assembled in reaction buffer (50 mM Tris-HCl pH 8.3, 75 mM KCl, 5 mM MgCl2, 10 mM DTT) with 30 nM primer, 45 nM template and 0.2 mM dNTPs. After annealing primer and template strands, DNA aptamers were added. Reactions were initiated by adding RT to a final concentration of 3 nM active site. […] Additional reactions included 1 μM and 3 μM where indicated. After 10 min at 37° C., reactions were quenched by addition of 2 volumes (20 μl) of gel-loading buffer (95% formamide with 0.01% bromophenol blue). For reactions assessing monovalent ion dependence, 75 mM KCl was replaced with 75 mM NaCl where indicated.

[2] = target: T1, HIV-1 reverse transcriptase (HXB2, …); test: inhibition; DDDP, K+ buffer; conditions: tags: expressed in E. coli; remark: listed apart in the source
Procedure: FIG. 13 Sequence plasticity of stems and loops. Inhibition of RT DDDP activity by aptamer variants. Aptamer concentrations (nM) are indicated above the lanes. (A) Aptamer TKQ4 retains inhibition even though it carries a G-to-A mutation in the fourth of the 12 G's that comprise the quadruplex. […] Similar titrations were carried out in triplicate for all aptamers for which IC50 values are reported. Aptamer R1T was included in subsequent panels to provide a consistent reference baseline of inhibition. (C) RT inhibition by aptamer SN, in which quadruplex loops are replaced with hexaethylene glycol. (D) and (E), RT inhibition by aptamers carrying mutations in helical stem domain, as detailed in text.
as §1

[3] = target: T1, HIV-1 reverse transcriptase (HXB2, …); test: inhibition; DDDP, K+ buffer; p136 states not significantly different from L1; conditions: tags: expressed in E. coli; hairpin + G4, T16 connector
Procedure: as §1

[4] = hairpin + G4, termini within quadruplex

B1: RT6-B (Vor) (ssDNA)
DNA: CGCCTGATTAGCGATACTCAGGCGTTAGGGAAGGGCGTCGAAAGCAGGGTGGG
For B1, the IC50 ([1]; hairpin + G4) was 5.7 nM.

In the case of CGCCTGATTAGCGATACTCAGGCGTTGGGCGGGCGGGCGGG (ssDNA) [R1C], the IC50 ([2]; hairpin + G4) is reported as 26 nM.

CGCCTGATTAGCGATACTCAGGCGTTGGGTGGGTGGGTGGG (ssDNA) [R1T] gave an IC50 ([1]; hairpin + G4) of 14 nM.

Binder CGCCTGATTAGCGATACTCAGGCGTTGGGAGGGAGGGAGGG (ssDNA) [R1A] has an IC50 ([2]; hairpin + G4) of 18 nM.

CGCCTGATTAGCGATACTCAGGCGAAGGGTGGGTGGGTGGG (ssDNA) [L6] showed an IC50 ([1]; hairpin + G4, A2 connector) of 13 nM.

Binder GGGTGGGTGGGTTCGCCTGATTAGCGATACTCAGGCGTTGGG (ssDNA) [Ecut] has an IC50 [1, 4] of 99 nM.

Binder GGGTGGGTTGCGGACTCATAGCGATTAGTCCGCTTGGGTGGG (ssDNA) [Acutrev] has an IC50 [1, 4] of 33 nM.

B2: R8T (ssDNA)
DNA: CGCCTGATTAGCGATACTCAGGCGTTGGGTTTTTTTTGGGTTTTTTTTGGGTTTTTTTTGGG
In the case of B2, the IC50 ([2]; hairpin + G4) is reported as 20 nM.

Binder CGCCTGATTAGCGATACTCAGGCGTTTTTTTTGGGTGGGTGGGTGGG (ssDNA) [L4] has an IC50 ([1]; hairpin + G4, T8 connector) of 28 nM.

CGCCTGACCCTTCAGGCGTTGGGTGGGTGGGTGGG (ssDNA) [S4] gave an IC50 ([2]; hairpin (CCCT tetraloop) + G4) of 32 nM.

Work on CCGGACTCATAGCGATTAGTCCGGTTGGGTGGGTGGGTGGG (ssDNA) [Srevstem] yielded an IC50 ([2]; hairpin + G4) of 26 nM.

Binder GGGTTCGCCTGATTAGCGATACTCAGGCGTTGGGTGGGTGGG (ssDNA) [Bcut] has an IC50 [1, 4] of 48 nM.

In the case of CGCCTGATTAGCGATACTCAGGCGTTGGGTTTTGGGTTTTGGGTTTTGGG (ssDNA) [R4T], the IC50 ([2]; hairpin + G4) is reported as ~35 nM.

In the case of CGCCTGATTAGCGATACTCAGGCGTTTTGGGTGGGTGGGTGGG (ssDNA) [L3], the IC50 ([1]; hairpin + G4, T4 connector) is reported as 13 nM.

B3: L10 (ssDNA)
DNA: CGCCTGATTAGCGATACTCAGGCGTTTTTTTTTTTTTTTTGGGTGGGTGGGTGGG
For B3, the IC50 [3] was 120 nM.

B4: ZAM1 (ssDNA)
DNA: CGCCTGATTAGCGCGCGCCGCGTTTTCGCGGCGCGCGCTACTCAGGCGTTGGGTGGGTGGGTGGG
In the case of B4, the IC50 ([2]; hairpin (22 bp) + G4) is reported as 10 nM.

B5: RT6 (ssDNA)
DNA: ATCCGCCTGATTAGCGATACTCAGGCGTTAGGGAAGGGCGTCGAAAGCAGGGTGGGACTTGAGCAAAATCACCTGCAGGG
B5 gave an IC50 ([1]; hairpin + G4) of 36 nM.

CGCCTGATTAGCGATACTCAGGCGTTGGGTTGGGTTGGGTTGGG (ssDNA) [R2T] was tested, and the IC50 ([2]; hairpin + G4) was 13 nM.

Work on GGGTGGGTTCGCCTGATTAGCGATACTCAGGCGTTGGGTGGG (ssDNA) [Acut] yielded an IC50 ([1]; hairpin + G4, termini between 2nd and 3rd G triplets) of 22 nM.

With CGTGATTAGCGATACTCACGTTGGGTGGGTGGGTGGG (ssDNA) [S1] the IC50 ([2]; hairpin + G4) was 59 nM.

Work on CGGATTAGCGATACTCCGTTGGGTGGGTGGGTGGG (ssDNA) [S2] yielded an IC50 ([2]; hairpin + G4) of 110 nM.

B6: RT6-A (ssDNA)
DNA: ATCCGCCTGATTAGCGATACTCAGGCGTTAGGGAAGGGTAGCGATACAGGGTGGG
Binder B6 has an IC50 ([1]; hairpin + G4) of 16 nM.
